From the DeepSol protein solubility set

Assay: soluble on expression in E. coli; label from the status in PepcDB or PDB records

In the case of “MGSDKIHHHHHHMSLQFDHETLGQRVLFGSGEAAQNLAAEISRLDAKNVMVVAGDFELPMARQVAADIDVKVWHSNVVMHVPIETAEEARSVAKENDIDVVVCVGGGSTTGLAKAIAMTTALPIIAVPTTYAGSEATNVWGLTEAARKTTGVDNKVLPVTVIYDSALTMSLPVEMSVASGLNGLAHCIDSLWGPKADPINAAMAAEGIRALSAGLPKIVADAQDVDGRDEALYGAYLAAVSFASAGSGLHHKICHVLGGTFNLPHAQTHATVLPYVLAFNAPYAPQAEQRAAAAFGSATALEGLQQLRAQVGAPQRLSDYGFTAAGIPEAVEIILEKVPANNPRTVTEENLTALLTTALNGDDPATLN”, the “soluble on expression in E. coli” value was “not soluble”.

With “MKINQMKKDQLFEGFYLIKSAEVRKTRAGKDFISLTFQDDTGEISGNLWDAQPYNVEEFTAGKVVFMKGRREVYNGTPQVNQITLRNVRPGEPNDPKDFKEKAPVSVTEVRDYLEQMLFKIENATWQRIVRALYRKYDKEFYTYPAAKTNHHAFESGLAYHTATMVRLADSIGDIYPDLNKSLLFAGIMLHDLAKVIELTGPDNTEYTVRGNLIGHISLINEEITKVISELQIDDTKEEVIVLRHVILSHHGQLEYGSPVRPRIMEAEIIHMIDNIDANMMMMTTALSRVSEGEMTNRIFAMDNRSFYKPNY” the “soluble on expression in E. coli” value was “not soluble”.

In the case of “MNPQLLRVTNRIIERSRETRSAYLARIEQAKTSTVHRSQLACGNLAHGFAACQPEDKASLKSMLRNNIAIITSYNDMLSAHQPYEHYPEIIRKALHEANAVGQVAGGVPAMCDGVTQGQDGMELSLLSREVIAMSAAVGLSHNMFDGALFLGVCDKIVPGLTMAALSFGHLPAVFVPSGPMASGLPNKEKVRIRQLYAEGKVDRMALLESEAASYHAPGTCTFYGTANTNQMVVEFMGMQLPGSSFVHPDSPLRDALTAAAARQVTRMTGNGNEWMPIGKMIDEKVVVNGIVALLATGGSTNHTMHLVAMARAAGIQINWDDFSDLSDVVPLMARLYPNGPADINHFQAAGGVPVLVRELLKAGLLHEDVNTVAGFGLSRYTLEPWLNNGELDWREGAEKSLDSNVIASFEQPFSHHGGTKVLSGNLGRAVMKTSAVPVENQVIEAPAVVFESQHDVMPAFEAGLLDRDCVVVVRHQGPKANGMPELHKLMPPLGVLLDRCFKIALVTDGRLSGASGKVPSAIHVTPEAYDGGLLAKVRDGDIIRVNGQTGELTLLVDEAELAAREPHIPDLSASRVGTGRELFSALREKLSGAEQGATCITF”, the “soluble on expression in E. coli” value was “soluble”.

For “MSLEFFMAKADNPAFEQGQSPRMRLPDSVPLLIVGGGIMGLWAAVKAERLGIGTLLVEAGRLGGGASGGLLGALMPHMPDRWSDKKQFQFDALVALEAEIAGLEAETGLSGGYRRCGRIIPLPKPHLRGIAERHERDAAENWRSGERRFQWHVGERPSVAGWVDDAAGEAGFVFDTLAARVSPRALIALLSAFLRKARHVQVAEGCRVVSLDADAGRAALSSGEEISFGHVVVANGHESFPLIRDALGLEAGVALGQAVKGQAALLDASADPAMPVVFLNGLYIVPHEDGTVAIGSTSEDCFSEPFSTDEKLEKLLVDACTVVPSLAGAPVLERWAGLRPKAVGRDPMVGAMAGTAKLVALSGGFKVSFGLAHFLADAALETVCGHTPVIPSGFRLQEHVSIAVPDFRKFLEHHHHHH”, the “soluble on expression in E. coli” value was “not soluble”.

In the case of “MAHHHHHHMHDIYLDNPSTFEILEKMFSLYVNTYPDNELPIGFILMGDFISLKFDYNKNFNDLYIKGFEKLSVLLISKFKLILQNCYLIFIPGKNDPCACKNSIPKMPILPYYIKKFEQNIQSFFSCKKKIIFATNPCRIRHFNKKMIFFRQDILNDLIWSSSINATDDNKNNLQDILISTIVGQSHIYPIPHDNRILKRYSSFLFLYPLPNFICISDNTCNSFISYASDNTSDSIISNSDLSFTKKKTFTVYNVLQHDAKRYVVPI”, the “soluble on expression in E. coli” value was “not soluble”.

In the case of “MSLVPRIAVLGCGHWGGNHIRTLQSLRALAAVSDVDSDRAASFASLYGVDAVAPDDLFTRRDIDALVLALPPQFHTENVLRAVKNGKDVLVEKPIALDVVDAECQVQAAREYGRILMVGHILRFHPAFEKISELVENGELGDVCYIYSHRLGFGKFHTQSDALWDLAPHDLSMILALTGCEPSEVRGEGAAVIDQCSDFAHIHMAFPNGIRSHLFASRLSPYRERRLMVVGTKAMLVFDDMEPWSRKVAFHPFAVWKENQEWAFSTDELSYINIYEDLPLTCELKHFLHCIETRQSPRTNGDDALAILRILTAAGVNYQKEGHHHHHH”, the “soluble on expression in E. coli” value was “soluble”.

For “SRVKKNVLDYNAWAEGTLKGIKQEKKAYKERHRLFFEGLSEAEKVEYATKMAHDAQIYDEPEFDPQELQSEYYRGLYAFDNRKNNVDSYK”, the “soluble on expression in E. coli” value was “soluble”.

For “MAHHHHHHMESLDERWNNQVDNFHIKVNKLRCDMNEYKKGCYNTYNLRNNKNDVFPHLQNNNMKRRELINMNNNYEIKNYLKKPHNQTYILKDNKYVNVDDITFPVSKNISNKVIKTNDEKILENKCCFKLNVRNKRKNEKVIKINEKRWLIATKHVKIERVNKNGVEQSEEKNKKDKNRYIYLEGEEGNLHLYPMYSDSEVGFENISHIEDESLSKVKKENQDDDDIMTTKHLAQWSSDIVHKYLEEAIEKSKSIFQNCNMESRQEEIFKRIKL”, the “soluble on expression in E. coli” value was “not soluble”.

In the case of “MAHHHHHHMQDSVLLSEAFDASHRPWPNRPERKKGVSPSGRDFNMTLYRMKGCPYCERVEWLLRYHLVPFEIVEVGPLTTKGFPDQRFVQVPQIGLEAVADPNNPHAAEKSVAYVADSQHIIAAISAPLGFTKQLSDPRIMETRKWMMERFQAAGFLAINSTWRDAYTTYPHVTPSHYYYQNPIFHVVGATALYALAKYKVAPRFAAEESATSGFPSMENSLQRDPSAWLAAELSGFATRLSGGCHQLHGGKEPDIADVEMYGLTRIIDAHPRLRSALHEGPLKEWCAAMEAALQKRTHVTKK”, the “soluble on expression in E. coli” value was “not soluble”.

With “MRKSRLSQHKQNKLIELFVAGVTARTASKLVNVNKNTATITFIDYAYSFIKQAHIWKCLKAKLKPMKAISAVLEKANVVAVLQGKSQYSGFSNEMQGLYRRCS” the “soluble on expression in E. coli” value was “not soluble”.

In the case of “MRYTVALTGGIGSGKSTVADAFADLGITVIDADIIARQMVEPGQPALNAIAEHFGSELIAADGTLRRRALRERIFSHPEEKAWLNALLHPLIQQETQRQFQQATSPYVLWVVPLLVENRLYQKANRVLVVDVTPETQLIRTMQRDDVTREHVEHILAAQATREARLAVADDVIDNNGAPDAIASDVARLHASYLKLASQFVSQEKP”, the “soluble on expression in E. coli” value was “not soluble”.

In the case of “MVRIDLGIKGKKVIVTAASKGIGFATAKRFLEEGAKVIISSHDENNLRKAYERLKNLGEVNYIIADLTKPSDVENLIKSGYSTLGGLDVLVYVTGSPKPGNLFELTNEDWINAFYLLLMSAVIAVREAGKLMKSGGRIILSTSMTLKEPLPNLDLSNVVRLSLAGLIKVAARELGEKGILVNGVMPGWTLTDRVDQLVKDRAKREGRSEEEIIRDITRDVPLKRIGKPEEVANVILFLASELSTYVNGVLIPVDGGLIKATL”, the “soluble on expression in E. coli” value was “soluble”.

In the case of “MGSDKIHHHHHHMSFYIYGILTLPAPQNLNLEGLDRQPVQIKILDDFAVIYSEAQQERYLASRRNLLSHEKVLEEIMQAGDRYLLPVQFGLLVSSWETVSQQLIRPHQEELTQLLAKLSGCREVSVKVFWDTEAEIQGLLAEHPNLKTERDKLVGQPLSMERVIQIGQVIEQGMSDRKQGIIDVFKGTLNSIAIEVVENTPQVDTMIYNSAYLIPWEAESQFSEHVESLDRQFENRLRIRYNNFTAPYNFARLRLTTSN”, the “soluble on expression in E. coli” value was “not soluble”.

With “MGSDKIHHHHHHLGIYVNPTGRSFELAINSEIFVDKSGLIKETNKCINTLQRYMCVSRPRRFGKSMAMDMLSAYYGRKTDAENLFKGLKISHDESYDRHINKYDVLKINMQDFLSVTHSVDDMLKMLCEYITDDFSIECKDIIFRDKSNIVRVMQDVFMSTGRPFVILIDEWDCLFREFTQDKEAQKKYLDFLRGWLKDKDYIALAYMTGILPIKKYGSHSALNMFTEYSMTDMGALAEYFGFTDDEVRELCDRYDMDFEEARAWYNGYKLVSHSKYGVKKYAMYSPKSVVEAMLKHKFGTYWNQTETYEALKVYIQMNMDGLKDAVIKMLAGESEKINTGTFENDMTSFATKDDVLTLLVHLGYLTYDSETEEVSIPNREVSKEYLNAISTMDWDEVSKSIKASQKLLESLWNMNGAAVADGIDKAHNEISILRYNDENSLSCTINLAFYSAREYYSIVRELPTGKGFADVCFIPRVSHLDKPAVVIELKYDKNVDGAISQIKSRQYVEALKDYKGNLLLVGINYDKKTKEHQCVIEKWKL” the “soluble on expression in E. coli” value was “not soluble”.

For “MSQRGLEALLRPKSIAVIGASMKPNRAGYLMMRNLLAGGFNGPVLPVTPAWKAVLGVLAWPDIASLPFTPDLAVLCTNASRNLALLEELGEKGCKTCIILSAPASQHEDLRACALRHNMRLLGPNSLGLLAPWQGLNASFSPVPIKRGKLAFISQSAAVSNTILDWAQQREMGFSYFIALGDSLDIDVDELLDYLARDSKTSAILLYLEQLSDARRFVSAARSASRNKPILVIKSGRSPAAQRLLNTTAGMDPAWDAAIQRAGLLRVQDTHELFSAVETLSHMRPLRGDRLMIISNGAAPAALALDALWSRNGKLATLSEETCQKLRDALPGHVAISNPLDLRDDASSEHYVKTLDILLHSQDFDALMVIHSPSAAAPATEIAQVLIEAVKHHPRSKYVSLLTNWCGEHSSQEARRLFSEAGLPTYRTPEGTITAFMHMVEYRRNQKQLRETPALPSNLTSNTAKAHLLLQQAIAEGATSLDTHEVQPILQSYGMNTLPTWIASDSTEAVHIAEQIGYPVALKLRSPDIPHKSEVQGVMLYLRTANEVQQAANAIFDRVKMTWPQARVHGLLVQSMANRAGAQELRVVVEHDPVFGPLIMLGEGGVEWRPEDQAVVALPPLNMNLARYLVIQGIKSKKIRARSALRPLDVAGLSQLLVQVSNLIVDCPEIQRLDIHPLLASGSEFTALDVTLDIAPFEGDNESRLAVRPYPHQLEEWVELKNGERCLFRPILPEDEPQLQQFISRVTKEDLYYRYFSEINEFTHEDLANMTQIDYDREMAFVAVRRIDQTEEILGVTRAISDPDNIDAEFAVLVRSDLKGLGLGRRLMEKLITYTRDHGLQRLNGITMPNNRGMVALARKLGFNVDIQLEEGIVGLTLNLAQREES”, the “soluble on expression in E. coli” value was “not soluble”.

In the case of “MFSIDDVAKQAQSLAGKGYETPKSNLPSVFRDMKYADYQQIQFNHDKAYWNNLKTPFKLEFYHQGMYFDTPVKINEVTATAVKRIKYSPDYFTFGDVQHDKDTVKDLGFAGFKVLYPINSKDKNDEIVSMLGASYFRVIGAGQVYGLSARGLAIDTALPSGEEFPRFKEFWIERPKPTDKRLTIYALLDSPRATGAYKFVVMPGRDTVVDVQSKIYLRDKVGKLGVAPLTSMFLFGPNQPSPANNYRPELHDSNGLSIHAGNGEWIWRPLNNPKHLAVSSFSMENPQGFGLLQRGRDFSRFEDLDDRYDLRPSAWVTPKGEWGKGSVELVEIPTNDETNDNIVAYWTPDQLPEPGKEMNFKYTITFSRDEDKLHAPDNAWVQQTRRSTGDVKQSNLIRQPDGTIAFVVDFTGAEMKKLPEDTPVTAQTSIGDNGEIVESTVRYNPVTKGWRLVMRVKVKDAKKTTEMRAALVNADQTLSETWSYQLPANEVEHHHHHH”, the “soluble on expression in E. coli” value was “soluble”.

For “MGSDKIHHHHHHMARYTGPLCKLCRREGMKLYLKGERCYTDKCAFDRRPYAPGQHGQRRTKLTQYGIQLRAKQTVKRIYGILERQFERYVEKAMQKAGDTRENLIQILEARLDNVVYRMGFAINRRQARQLVNHGHFLVNGKKVNIPSYLLRPNDVVEVREKSRDLEVIKKAIEANKERSIVPWIEVDYDNYRGTFLRYPSLEEVTDLPVDLQTVIEFYSR”, the “soluble on expression in E. coli” value was “not soluble”.

In the case of “TIKRMECFDISHTMGSQTVASCVVFDENGPLKSDYRRFNIEGITGGDDYAGMEQALVKRYDKPLPIEKIPDIIFIDGGKGQLNRALQVFEKLTVAWDKHKPLLIGVAKGAERKAGLETLIIGRLKKEIHLPIDSPALHLIQHIRDESHHHAISGHRKKRQKA”, the “soluble on expression in E. coli” value was “not soluble”.

In the case of “MSLQVEFRECDPGNLWIWFEFAEPPVPAELEYLKEVLESWYVLGKLGGFNAERLVAQEAEVDLSYLEYPSDSAPLTSLMHNMGSLEEKGNWARCWFDLGTADALALDVLINALRTLSLEYINLSRVIIGGQNEDWPTPDPEETDVYDDLNGYLRDHWGEEGEGHHHHHH”, the “soluble on expression in E. coli” value was “soluble”.
